Key:
[1] = biological target: T1, rat LIV-1 (rat) (UniProt Q4V887); assay: FACS, HEK293/Rat_LIV-1 cells
T1 sequence (looked up): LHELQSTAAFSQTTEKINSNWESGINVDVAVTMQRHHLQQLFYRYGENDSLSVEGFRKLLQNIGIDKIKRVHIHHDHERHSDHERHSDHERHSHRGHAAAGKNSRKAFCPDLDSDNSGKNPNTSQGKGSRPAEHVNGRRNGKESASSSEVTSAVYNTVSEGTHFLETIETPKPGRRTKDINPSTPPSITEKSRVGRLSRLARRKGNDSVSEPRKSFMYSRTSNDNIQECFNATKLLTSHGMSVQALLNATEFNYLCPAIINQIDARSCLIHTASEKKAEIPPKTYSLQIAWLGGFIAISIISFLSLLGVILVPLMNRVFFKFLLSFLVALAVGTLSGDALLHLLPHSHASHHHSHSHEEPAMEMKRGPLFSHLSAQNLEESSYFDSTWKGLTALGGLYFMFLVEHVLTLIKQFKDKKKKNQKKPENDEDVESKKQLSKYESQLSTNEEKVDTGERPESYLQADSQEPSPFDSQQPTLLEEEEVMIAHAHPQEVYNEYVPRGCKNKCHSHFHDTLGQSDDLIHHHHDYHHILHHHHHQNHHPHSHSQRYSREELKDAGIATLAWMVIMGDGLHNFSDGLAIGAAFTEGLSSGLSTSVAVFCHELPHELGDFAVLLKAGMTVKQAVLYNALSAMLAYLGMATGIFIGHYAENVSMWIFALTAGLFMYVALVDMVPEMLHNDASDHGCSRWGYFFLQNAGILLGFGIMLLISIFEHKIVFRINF

[2] = biological target: T2, mouse LIV-1 (mouse) (UniProt Q8C145); assay: FACS, HEK293/Mouse_LIV-1 cells
T2 sequence (looked up): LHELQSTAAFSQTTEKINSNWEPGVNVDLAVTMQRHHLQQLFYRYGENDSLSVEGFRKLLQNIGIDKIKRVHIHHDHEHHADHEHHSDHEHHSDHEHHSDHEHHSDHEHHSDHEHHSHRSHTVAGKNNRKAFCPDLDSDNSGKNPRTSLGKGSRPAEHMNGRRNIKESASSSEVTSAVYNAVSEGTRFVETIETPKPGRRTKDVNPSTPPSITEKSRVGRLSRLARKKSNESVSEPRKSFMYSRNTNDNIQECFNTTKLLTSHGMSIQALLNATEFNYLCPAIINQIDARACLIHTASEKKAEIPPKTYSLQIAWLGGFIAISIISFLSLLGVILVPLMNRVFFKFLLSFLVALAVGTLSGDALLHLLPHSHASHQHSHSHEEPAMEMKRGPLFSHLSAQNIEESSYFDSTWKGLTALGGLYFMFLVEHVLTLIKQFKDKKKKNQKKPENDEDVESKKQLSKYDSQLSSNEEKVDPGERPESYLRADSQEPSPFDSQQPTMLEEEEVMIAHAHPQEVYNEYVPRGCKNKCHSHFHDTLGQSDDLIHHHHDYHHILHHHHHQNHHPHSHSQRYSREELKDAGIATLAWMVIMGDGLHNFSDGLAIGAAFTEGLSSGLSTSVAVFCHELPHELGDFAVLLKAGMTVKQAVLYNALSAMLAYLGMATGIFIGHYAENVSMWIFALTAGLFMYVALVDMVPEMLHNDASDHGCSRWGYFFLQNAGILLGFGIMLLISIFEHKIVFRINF

Top (MFI) [1]: 119 MFI
Top (MFI) [2]: 114 MFI
Substance: hIgG1 Isotype (antibody)

From patent publication US20240325555A1
